The values below come from article PMC9375587 (2022).

For the assay, the target named is Thrombin (Homo sapiens, UniProt P00734). Description: solid-phase binding assay.

The term Kd denotes the constant that tells how readily two partners part at equilibrium. A high value points to a looser complex.

B1: Myeloperoxidase (protein)
chain: not shown
As for B1, the Kd is 0.101 µM.
